Test results from US20160046728A1 (HENOGEN S A, published 2016).

Columns and labels:
[1] = target: T1, factor IX (UniProt P00740 47-461); experiment: SPR (BIAcore 3000), Ir-CPI immobilized on CM5 chip, factor injected as analyte
T1 construct: also called fIX
Description: (§1) The interaction between Ir-CPI and coagulation or fibrinolytic factors was monitored using a BIAcore 3000 instrument (BIAcore AB, Sweden). Ir-CPI (15 μM) was immobilized on the surface of a CM5 sensor chip in 10 mM acetate buffer, pH 5.0, by the amine coupling procedure according to the manufacturer's instructions. 1500 resonance units (RU) of immobilized Ir-CPI were used for the assay. To subtract the non-specific component from the apparent binding response, a blank flow cell was prepared using the same immobilizing procedure without Ir-CPI. Binding analyses were carried out using HBS buffer (HEPES 10 mM, NaCl 150 mM, EDTA 3 mM; pH 7.4 with 0.005% surfactant P20) as running buffer at 25° C. 100 μl of each analyte (100 nM) was injected on the sensor chip at a flow rate of 70 μl/min Association was monitored during an 84 s injection of analyte. Dissociation was monitored for 3 min after return to the running buffer.
(§2) The ability of Ir-CPI to bind a (co)factor of coagulation or fibrinolysis was evaluated by surface plasmon resonance. […] Moreover, the kinetics of interaction between Ir-CPI and the four target factors (XIIa, XIa, plasmin and kallikrein) were measured after a new immobilization of Ir-CPI. […] Interaction kinetics were determined for each analyte, at 6 different concentrations (from 5 nM to 300 nM). The kinetic data obtained were individually processed with BIA evaluation software in order to determine the kinetics constants.

[2] = target: T2, thrombin (UniProt P00734 328-622); experiment: as above
T2 construct: also called factor IIa; IIa
Description: as §1, §2

[3] = target: plasminogen (UniProt P00747 20-810); experiment: as above
plasminogen, sequence (P00747 20-810 limits assumed): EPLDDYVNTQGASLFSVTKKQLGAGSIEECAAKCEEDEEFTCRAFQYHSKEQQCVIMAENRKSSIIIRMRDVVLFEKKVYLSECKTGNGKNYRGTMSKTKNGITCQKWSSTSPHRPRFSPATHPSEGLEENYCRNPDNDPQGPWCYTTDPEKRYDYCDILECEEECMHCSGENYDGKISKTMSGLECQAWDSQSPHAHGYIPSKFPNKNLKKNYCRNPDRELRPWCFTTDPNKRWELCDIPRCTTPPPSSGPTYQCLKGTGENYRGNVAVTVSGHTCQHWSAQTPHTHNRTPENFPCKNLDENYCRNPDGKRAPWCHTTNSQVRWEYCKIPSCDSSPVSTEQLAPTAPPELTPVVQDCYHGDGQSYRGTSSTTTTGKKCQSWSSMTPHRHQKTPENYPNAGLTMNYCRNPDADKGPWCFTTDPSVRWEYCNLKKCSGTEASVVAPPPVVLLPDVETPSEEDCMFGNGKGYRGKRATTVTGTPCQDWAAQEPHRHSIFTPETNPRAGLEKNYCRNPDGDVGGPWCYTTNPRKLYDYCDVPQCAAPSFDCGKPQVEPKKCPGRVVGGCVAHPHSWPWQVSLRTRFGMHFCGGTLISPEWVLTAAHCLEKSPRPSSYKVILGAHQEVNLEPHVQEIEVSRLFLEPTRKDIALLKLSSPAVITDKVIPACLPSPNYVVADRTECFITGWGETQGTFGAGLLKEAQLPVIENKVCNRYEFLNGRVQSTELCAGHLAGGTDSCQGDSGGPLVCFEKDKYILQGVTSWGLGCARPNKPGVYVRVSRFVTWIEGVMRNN
Description: as §1, §2

[4] = target: T3, factor X (UniProt P00742 41-488); experiment: as above
T3 construct: also called fX
Description: as §1, §2

[5] = target: T4, high molecular weight kininogen (UniProt P01042 19-644); experiment: as above
T4 construct: also called HMWK
T4 sequence (looked up): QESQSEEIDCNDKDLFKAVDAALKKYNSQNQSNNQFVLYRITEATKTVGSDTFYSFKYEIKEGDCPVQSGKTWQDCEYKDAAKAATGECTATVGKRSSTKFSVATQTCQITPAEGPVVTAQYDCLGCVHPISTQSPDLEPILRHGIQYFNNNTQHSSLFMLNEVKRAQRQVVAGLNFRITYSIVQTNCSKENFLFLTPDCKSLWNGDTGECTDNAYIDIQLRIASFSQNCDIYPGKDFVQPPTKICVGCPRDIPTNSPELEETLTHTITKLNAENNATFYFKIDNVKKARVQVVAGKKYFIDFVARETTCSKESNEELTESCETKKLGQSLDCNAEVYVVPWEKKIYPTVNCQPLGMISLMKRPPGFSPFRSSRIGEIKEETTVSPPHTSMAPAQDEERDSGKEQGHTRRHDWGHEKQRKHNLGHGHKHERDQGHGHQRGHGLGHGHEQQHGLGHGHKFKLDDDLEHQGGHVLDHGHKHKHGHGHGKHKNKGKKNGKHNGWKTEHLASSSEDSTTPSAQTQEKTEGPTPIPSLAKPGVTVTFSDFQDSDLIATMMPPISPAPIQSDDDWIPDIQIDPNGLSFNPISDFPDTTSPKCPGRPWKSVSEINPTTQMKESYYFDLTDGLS
Description: as §1, §2

[6] = target: T5, factor VIIa (UniProt P08709 61-466); experiment: as above
T5 construct: In the amidolytic and reconstituted assays it was used with tissue factor ('FT-FVIIa', 'tissue factor complex/factor VIIa'); In SPR it is printed only as 'fVIIa'; also called fVIIa; FVIIa
T5 sequence (looked up): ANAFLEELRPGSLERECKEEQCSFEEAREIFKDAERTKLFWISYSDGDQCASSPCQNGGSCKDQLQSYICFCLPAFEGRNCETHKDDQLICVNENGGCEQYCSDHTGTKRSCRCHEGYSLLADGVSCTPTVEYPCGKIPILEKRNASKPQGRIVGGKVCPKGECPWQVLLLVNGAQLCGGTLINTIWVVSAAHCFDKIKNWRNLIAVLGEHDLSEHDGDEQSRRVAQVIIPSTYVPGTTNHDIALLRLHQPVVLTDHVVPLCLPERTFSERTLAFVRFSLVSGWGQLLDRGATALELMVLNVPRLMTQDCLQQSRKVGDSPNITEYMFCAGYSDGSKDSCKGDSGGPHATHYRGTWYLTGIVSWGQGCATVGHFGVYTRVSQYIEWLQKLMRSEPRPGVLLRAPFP
Description: as §1, §2

[7] = target: t-PA (UniProt P00750 36-562); experiment: as above
t-PA, sequence (P00750 36-562 limits assumed): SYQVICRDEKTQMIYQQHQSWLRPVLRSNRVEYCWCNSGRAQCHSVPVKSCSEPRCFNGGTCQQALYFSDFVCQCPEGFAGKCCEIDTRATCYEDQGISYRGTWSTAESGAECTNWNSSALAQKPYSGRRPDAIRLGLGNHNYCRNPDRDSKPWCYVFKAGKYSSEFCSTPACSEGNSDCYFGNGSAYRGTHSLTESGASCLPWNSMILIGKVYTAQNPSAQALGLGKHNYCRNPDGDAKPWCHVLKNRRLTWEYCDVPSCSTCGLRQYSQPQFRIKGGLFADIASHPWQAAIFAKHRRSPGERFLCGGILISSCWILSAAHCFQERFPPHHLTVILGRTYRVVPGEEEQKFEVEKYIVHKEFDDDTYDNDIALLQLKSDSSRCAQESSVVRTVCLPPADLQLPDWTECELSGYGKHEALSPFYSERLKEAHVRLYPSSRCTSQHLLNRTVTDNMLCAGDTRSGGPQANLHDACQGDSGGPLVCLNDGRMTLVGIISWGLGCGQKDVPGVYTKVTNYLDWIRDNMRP
Description: as §1, §2

[8] = target: T6, factor XIIa (UniProt P00748 20-615, limits assumed); experiment: cell-based or functional assay
T6 sequence (looked up): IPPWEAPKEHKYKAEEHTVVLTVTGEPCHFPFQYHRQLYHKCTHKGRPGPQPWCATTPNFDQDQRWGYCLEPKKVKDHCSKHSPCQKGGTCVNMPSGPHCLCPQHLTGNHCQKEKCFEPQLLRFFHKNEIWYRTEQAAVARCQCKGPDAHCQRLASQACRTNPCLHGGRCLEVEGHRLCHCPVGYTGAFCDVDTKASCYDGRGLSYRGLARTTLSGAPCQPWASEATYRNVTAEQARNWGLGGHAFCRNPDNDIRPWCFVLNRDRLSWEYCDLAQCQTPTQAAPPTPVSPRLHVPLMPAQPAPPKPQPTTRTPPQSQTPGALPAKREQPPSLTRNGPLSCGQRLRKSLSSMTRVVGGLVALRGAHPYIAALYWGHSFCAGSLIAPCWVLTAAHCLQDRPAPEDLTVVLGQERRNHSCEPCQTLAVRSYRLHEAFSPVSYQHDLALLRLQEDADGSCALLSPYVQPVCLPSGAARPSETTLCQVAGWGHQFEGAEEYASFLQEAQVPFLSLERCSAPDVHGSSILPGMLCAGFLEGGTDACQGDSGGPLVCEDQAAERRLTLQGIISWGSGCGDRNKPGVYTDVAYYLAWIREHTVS

[9] = target: factor XIa (UniProt P03951 19-625); experiment: cell-based or functional assay
[10] = target: plasma kallikrein (UniProt P03952 20-638); experiment: SPR kinetics, Ir-CPI immobilized (about 200 RU), analyte at 6 concentrations from 5 nM to 300 nM
plasma kallikrein, sequence (P03952 20-638 limits assumed): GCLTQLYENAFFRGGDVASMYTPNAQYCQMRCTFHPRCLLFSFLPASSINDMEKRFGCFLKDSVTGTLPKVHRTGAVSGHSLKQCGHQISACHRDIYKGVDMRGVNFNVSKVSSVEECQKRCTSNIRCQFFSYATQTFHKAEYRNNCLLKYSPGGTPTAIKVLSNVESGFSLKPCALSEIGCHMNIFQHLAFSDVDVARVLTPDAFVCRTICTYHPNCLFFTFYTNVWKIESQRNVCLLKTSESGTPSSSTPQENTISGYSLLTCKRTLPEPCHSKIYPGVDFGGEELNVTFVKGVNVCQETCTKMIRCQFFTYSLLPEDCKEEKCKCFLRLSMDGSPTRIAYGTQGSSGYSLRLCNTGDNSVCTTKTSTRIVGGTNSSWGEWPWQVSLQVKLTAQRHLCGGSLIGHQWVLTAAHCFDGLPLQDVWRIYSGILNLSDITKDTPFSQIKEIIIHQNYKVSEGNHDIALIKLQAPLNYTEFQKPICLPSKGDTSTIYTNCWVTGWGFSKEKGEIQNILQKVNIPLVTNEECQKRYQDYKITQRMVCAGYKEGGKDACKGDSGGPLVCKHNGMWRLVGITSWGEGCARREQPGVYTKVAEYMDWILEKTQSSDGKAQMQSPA
Description: Interaction kinetics were determined, for each analyte, with 6 different concentrations (from 5 nM to 300 nM). Binding data were analyzed using BIA evaluation software to determine the kinetic constants.
The ability of Ir-CPI to bind a (co)factor of coagulation or fibrinolysis was evaluated by surface plasmon resonance. […] Moreover, the kinetics of interaction between Ir-CPI and the four target factors (XIIa, XIa, plasmin and kallikrein) were measured after a new immobilization of Ir-CPI. […] Interaction kinetics were determined for each analyte, at 6 different concentrations (from 5 nM to 300 nM). The kinetic data obtained were individually processed with BIA evaluation software in order to determine the kinetics constants. […] FIG. 9 represents sensorgrams for interactions between coagulation factors and immobilized Ir-CPI measured by surface plasmon resonance. Ir-CPI was immobilized onto the surface of a sensor chip CM5 at level of 1500 resonance units (RUs). Contact factors (100 nM final concentration) were injected at a flow rate of 70 μl/min in HBS buffer, and association was monitored. After return to buffer flow, dissociation was monitored during 84 s. The sensor chip surface was regenerated by a pulse injection of 25 mM NaOH after each experiment.

B1: Ir-CPI (Ixodes ricinus Contact Phase Inhibitor), recombinant (other)
chain: ANHKGRGRPAKCKLPPDDGPCRARIPSYYFDRKTKTCKEFMYGGCEGNENNFENITTCQEECRAKKV
notes: Kunitz-type protein; Made in E. coli as a GST fusion (pGEX-6P-1), released with PreScission protease and gel filtered; In the SPR assay it was amine-coupled to a CM5 chip; also called ID; NO; 7 without its peptide signal
- binding result [1]: no binding (tested: 100 nM)
- binding result [2]: no binding (tested: 100 nM)
- binding result [3]: no binding (tested: 100 nM)
- binding result [4]: no binding (tested: 100 nM)
- binding result [5]: no binding (tested: 100 nM)
- binding result [6]: no binding (tested: 100 nM)
- binding result [7]: no binding (tested: 100 nM)
- EC50 (µg/mL) of inhibition of FXII coagulation activity, aPTT-based assay in human plasma with FXII deficient plasma [8]: 1.38 µg/mL
- EC50 (µg/mL) of inhibition of FXI coagulation activity, aPTT-based assay in human plasma with FXI deficient plasma [9]: 1.41 µg/mL
- Kd [10]: 200 nM
